Source: patent US20240247080A1, “GLP1/GIP/NPY2 RECEPTOR TRIPLE AGONISTS” (Boehringer Ingelheim International GmbH, priority 2022, published 2024)
Numbering of substitutions follows the chain as printed. Non-standard residues stand in square brackets, D forms with d. No end group written: not given here. Aib = CC(C)(N)C(=O)O

B1: Compound 115 (peptide)
peptide: YXEGTFTSDYSIXLEKQAQXAFVQWLIKGGPSEGASLRHYYNWLTRQRY
modifications: Aib at 2, 13, 20; NMeQ at 47; K28 side chain: C20DA-gGlu-gGlu-gGlu-gGlu-gGlu-gGlu-eLys; C-terminal NH2
B2: Compound 129 (peptide)
peptide: B1 peptide with Q24E, E33S, R38X
modifications: Aib at 2, 13, 20, 38; K28 side chain: C20DA-gGlu-gGlu-gGlu-gGlu-gGlu-gGlu-eLys; C-terminal NH2
B3: Compound 122 (peptide)
peptide: B1 peptide with Q24E, G34P, A35E
modifications: Aib at 2, 13, 20; K28 side chain: C20DA-gGlu-gGlu-gGlu-gGlu-gGlu-gGlu-eLys; C-terminal NH2
B4: Compound 131 (peptide)
peptide: B1 peptide with K16R, Q24E, E33S
modifications: Aib at 2, 13, 20; K28 side chain: C20DA-gGlu-gGlu-gGlu-gGlu-gGlu-gGlu-eLys; C-terminal NH2
B5: Compound 118 (peptide)
peptide: B1 peptide with Q24E, E33S, L37X
modifications: Aib at 2, 13, 20, 37; K28 side chain: C20DA-gGlu-gGlu-gGlu-gGlu-gGlu-gGlu-eLys; C-terminal NH2
B6: Compound 119 (peptide)
peptide: B1 peptide with Q24E, E33S, H39X
modifications: Aib at 2, 13, 20; Tle at 39; K28 side chain: C20DA-gGlu-gGlu-gGlu-gGlu-gGlu-gGlu-eLys; C-terminal NH2
B7: Compound 124 (peptide)
peptide: B1 peptide with K16Q, Q24E, E33S
modifications: Aib at 2, 13, 20; K28 side chain: C20DA-gGlu-gGlu-gGlu-gGlu-Glu-gGlu-eLys; C-terminal NH2
B8: Compound 116 (peptide)
peptide: B1 peptide with K16E, Q24E, E33S
modifications: Aib at 2, 13, 20; K28 side chain: C20DA-gGlu-gGlu-gGlu-gGlu-gGlu-gGlu-eLys; C-terminal NH2
B9: Compound 123 (peptide)
peptide: B1 peptide with Q24E, P31Q, E33S
modifications: Aib at 2, 13, 20; K28 side chain: C20DA-gGlu-gGlu-gGlu-gGlu-gGlu-gGlu-eLys; C-terminal NH2
B10: Compound 125 (peptide)
peptide: B1 peptide
modifications: Aib at 2, 13, 20; NMeR at 48; K28 side chain: C20DA-gGlu-gGlu-gGlu-gGlu-gGlu-gGlu-eLys; C-terminal NH2
B11: Compound 128 (peptide)
peptide: B1 peptide with E15D, Q24E, E33S
modifications: Aib at 2, 13, 20; K28 side chain: C20DA-gGlu-gGlu-gGlu-gGlu-gGlu-gGlu-eLys; C-terminal NH2
B12: Compound 130 (peptide)
peptide: B1 peptide with V23I, Q24E, E33S
modifications: Aib at 2, 13, 20; K28 side chain: C20DA-gGlu-gGlu-gGlu-Glu-gGlu-gGlu-eLys; C-terminal NH2
B13: Compound 120 (peptide)
peptide: B1 peptide with Q24E, E33S, G34P
modifications: Aib at 2, 13, 20; K28 side chain: C20DA-gGlu-gGlu-gGlu-gGlu-gGlu-OEG-OEG; C-terminal NH2
B14: Compound 117 (peptide)
peptide: B1 peptide with Q24E, E33S, L37V
modifications: Aib at 2, 13, 20; K28 side chain: C20DA-gGlu-gGlu-gGlu-gGlu-gGlu-gGlu-eLys; C-terminal NH2
B15: Compound 127 (peptide)
peptide: B1 peptide with Q24E, E33S, A35E
modifications: Aib at 2, 13, 20; K28 side chain: C20DA-gGlu-gGlu-gGlu-gGlu-gGlu-gGlu-eLys; C-terminal NH2
B16: Compound 121 (peptide)
peptide: B1 peptide with K16S, Q24E, E33S
modifications: Aib at 2, 13, 20; K28 side chain: C20DA-gGlu-gGlu-gGlu-gGlu-gGlu-gGlu-eLys; C-terminal NH2

Assays:
Assay in all cases: cell-based or functional assay
[1] = target: human GLP-1 receptor (human, UniProt P43220 24-463)
[2] = target: T1, human neuropeptide Y2 receptor (human, UniProt P49146 1-381)
T1 sequence (looked up): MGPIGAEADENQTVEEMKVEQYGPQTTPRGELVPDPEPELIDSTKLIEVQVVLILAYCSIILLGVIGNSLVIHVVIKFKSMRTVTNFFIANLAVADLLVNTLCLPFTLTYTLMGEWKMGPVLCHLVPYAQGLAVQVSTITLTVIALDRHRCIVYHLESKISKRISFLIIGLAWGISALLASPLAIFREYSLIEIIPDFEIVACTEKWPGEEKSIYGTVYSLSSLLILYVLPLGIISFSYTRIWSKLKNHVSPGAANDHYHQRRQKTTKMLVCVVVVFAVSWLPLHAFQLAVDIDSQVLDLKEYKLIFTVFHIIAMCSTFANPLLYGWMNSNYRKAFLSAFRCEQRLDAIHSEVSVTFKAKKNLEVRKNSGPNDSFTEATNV

[3] = target: T2, human GIP receptor (human, UniProt P48546 22-466)
T2 sequence (looked up): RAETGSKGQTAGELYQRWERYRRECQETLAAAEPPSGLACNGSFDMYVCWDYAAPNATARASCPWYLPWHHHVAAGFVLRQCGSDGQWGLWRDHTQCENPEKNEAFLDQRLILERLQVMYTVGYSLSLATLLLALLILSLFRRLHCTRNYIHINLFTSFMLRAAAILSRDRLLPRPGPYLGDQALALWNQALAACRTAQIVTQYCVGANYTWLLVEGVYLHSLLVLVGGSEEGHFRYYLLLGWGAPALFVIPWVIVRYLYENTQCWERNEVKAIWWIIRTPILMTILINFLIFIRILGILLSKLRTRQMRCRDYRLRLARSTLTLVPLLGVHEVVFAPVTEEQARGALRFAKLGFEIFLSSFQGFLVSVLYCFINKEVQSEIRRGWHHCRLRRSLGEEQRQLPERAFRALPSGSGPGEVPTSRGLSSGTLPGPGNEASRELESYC

Binder	EC50 CreLuc hGLP1R 0.5% hP [1]	EC50 CreLuc hGLP1R 100% hP [1]	EC50 CreLuc hNPY2R 0.5% hP [2]	EC50 CreLuc hNPY2R 100% hP [2]	EC50 CreLuc hGIPR 0.5% hP [3]	EC50 CreLuc hGIPR 100% hP [3]
Y[Aib]EGTFTSDYSI[Aib]LEKQAQ[Aib]AFVEWLIKGGPSSYASLRHYYNWLTRQRY-NH2 (not fully specified (residue 28)) [Compound 126]	0.18 nM	3.36 nM	15.1 nM	41.8 nM	0.1 nM	1.27 nM
B1	0.12 nM	3.45 nM	7.8 nM	30.6 nM	0.51 nM	1.89 nM
B2	0.04 nM	0.85 nM	30.9 nM	87.6 nM	0.06 nM	0.5 nM
B3	0.22 nM	4.97 nM	26.3 nM	78.9 nM	0.08 nM	1.53 nM
B4	0.11 nM	2.84 nM	18.2 nM	71.5 nM	0.35 nM	2.94 nM
B5	0.05 nM	0.84 nM	6.2 nM	26.2 nM	0.06 nM	0.55 nM
B6	0.26 nM	4.46 nM	23.1 nM	80.1 nM	0.63 nM	4.31 nM
B7	0.11 nM	1.95 nM	16.2 nM	39.9 nM	0.26 nM	0.89 nM
B8	0.14 nM	2.48 nM	13.5 nM	85.7 nM	0.43 nM	3.01 nM
B9	0.24 nM	7.88 nM	6.12 nM	31.3 nM	0.42 nM	4.11 nM
B10	0.23 nM	2.85 nM	30.9 nM	99.3 nM	0.28 nM	1.72 nM
B11	0.4 nM	3.7 nM	24.8 nM	51.9 nM	0.11 nM	0.9 nM
B12	0.13 nM	1.18 nM	18 nM	54.8 nM	0.11 nM	0.98 nM
B13	0.11 nM	4.65 nM	10.7 nM	39.2 nM	0.34 nM	1.44 nM
B14	0.13 nM	1.8 nM	6.81 nM	24.6 nM	0.14 nM	1.18 nM
B15	0.04 nM	1.6 nM	13.2 nM	66.3 nM	0.05 nM	0.84 nM
B16	0.18 nM	7.09 nM	23.8 nM	88.9 nM	0.65 nM	7.29 nM
